# Source: the supplement of paper PMC9170038
# Tested on: K4 kissing-loop RNA reporter
# Assay: apparent KD of K4 kissing-loop reporter; higher = weaker reporter binding
# Details: Eterna round: R107; input ligand: FMN 200 uM
# Description: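 RNA-MaP round R107: designed RNA switches with theophylline, tryptophan, arginine or FMN aptamers are transcribed on-chip within common flanks. They are titrated with a labelled K4 kissing-loop RNA reporter in RNA-MaP buffer (100 mM Tris pH 7.5, 80 mM KCl, 4 mM MgCl2), without ligand or with the indicated ligand. Median apparent KD per design.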
# 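Further: bound reporter read as fluorescence of individual clusters on recovered sequencing chips by microscopy, with normalized cluster intensities fitted with a binding model.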
row,Sequence,apparent KD of K4 kissing-loop reporter
1,AUAAUUAUAUAGAAAUAUAUAAUUAUAUAACGAGGACCGGUACGGCCGCCACUCGUGCCGGGCAUAAAAUGAGUGAUGUUCAUGU [KL-XTryp-A7 #analogue],205 nM
2,UGUAUGUGAUGUGAUACCAGUGAAGAGCCAGUGAUGUUGGUAGAACUGGUAUAUAAAUAACACCCUUGGCAGCACAAUCACGUAC [whbob_Ex_Theo_B_sa99],289 nM
3,AGCCGUCUAAGUGAUGUUUAGGCAUGUCAGCGAGGACCGGUACGGCCGCCACUCGUGCUAUUGAGAUUUCGGGUAGCCCACGUAG [theeternabot_sameState_KL_Trp_A_20],288 nM
4,GUGAAGGAGCUGCAGUGAUGUUGCAGAAACUAGGAUAUCAGGAAACUGAGAAGGAGUCAACUCCUUCACCUAAAUACUGCAGAAA [KL-SSFMN-A23],104 nM
5,AUAAUAAAGACGGCCGCCACUGAGAGUAGUGAUGUUACUCUUUUCCUUUAGAAAUAAUAUUUUAUCAGGACCGGGUUUUUUGAAU [JR_Nu_ExcTryptoB_Sub026],95.3 nM
6,CAUACGCAUGGAGGAUAUGAGAUUUCUCAUAUUAUUUAAUAUUCUCAGUGAUGUUGAGAAUUAAACUCAGAAGGCCAUGUGUAUG [Ex FMN B 4],296 nM
7,ACGUAGUUCUAGGAUACCAGCCAAGGAGGGUAGGACAAAAGUCCUGUAGCCAGUGAUGUUGGCCCUUGGCAGCCUAGAACUACGA [Omei KL Theo B Exc B v3],162 nM
8,AGGUACUACGGAAGGAGCGCACCAGUGAUGUUGGUGUGUGACCGUGACAUGGCAGUCAAGGUGCAGGUAGGUCGCCGUGGCCUUU [Anatartibe],143 nM
9,UGACUACAAAAGGAAUAAUCCUAGUGAUGUUAGGAUAUGCUGAUAAGCAGAAGGAACGGAGAUCGAAAGAUCUCAAAUGUAGUCU [whbob_Ex_FMNA__2th191],153 nM
10,UCGGCAAAGUCGGCCGCCACUCCGGGCCCUAUAAAUGGGCGCAGUGAUGUUGCGGCUAGGCCUCUGAGGACCGGGACUUUGUAAA [Atordied],185 nM
11,UUGAGCCUGACGAAAGUCAGGCUCUGCGAGCGAGGACCGGUACGGCCGCCACUCGGUGCAGUGAUGUUGCAUGGCCGCAAGGCCG [#2 Exclusion - Tryptophan A Attempt #14 (HarryS)],309 nM
12,ACUAUCGAAAGAUAGUUCCCAGAGCUAGUAGAGGAUAUCUGGAAACAGAGAAGGCUACAAGAGUGAUGUUCUUCUAGCUUUGGGA,403 nM
13,CGUUUAUAGCAGGAUACCAGUACGGAUAAAGUACGUUAAUAGUAGAGUGAUGUUCUAAAGUACCCUUGGCAGCUUAGAGUGAGUG [ExTheophylB.O],107 nM
14,GCAGUGAUGUUGCGGAUGUACAGUGGCGUGCGAGGACCGGUACGGCCGCCACUCGUACAGAGCCAGCUAAUACAUCGAUUGGUGA [whbob_SS_Tryp_A_m7],387 nM
15,AGUGAUGUUGUGUUAUGCAAGGGAAGUGAUCGAGGACCGGUACGGCCGCCACUCGAGUGAUGAGUGAGUGAUGUUUGUUUAGGGA [ffgmullin],1180 nM
16,GGAAAGCCAGUGAUGUUGGCAUAAACUGAAGGAGCGCGUGAAAACGCAGGUAGGUCGCAGAACCUUGCCAACUAUAUUAUUUACC [Ex Arginine A K4 21],128 nM
17,GCAGUGAUGUUGCUGAUGUACAGUGGGAUACGAGGACCGGUACGGCCGCCACUCGUACAGAACUUAUUAAUACAUCGAUAAGUGA [XIV],534 nM

# Same assay, conditions: Eterna round: R107; input ligand: arginine 13.2 mM
row,Sequence,apparent KD of K4 kissing-loop reporter
1,UGUGUUGUUUUGAUGUUUGUUGUAAAAUGGCAGGAUAUCGUAGAGGCGAGAAGGGCUUUUAUGCGUUAUGAGUGAUGUUUGUAGG [zvvczmullin],283 nM
2,UGACUGGACUGAAGGAGCGCUAAACUCCUAGUGAUGUUAGGAUAACGAGACAAAGUCUCGAGGCAGGUAGGUCGCAGUCUAGUCU,134 nM
3,UCCUGCAAUCGACCACGAAAGUGGAUGGAUACCAGAGUCGAAAGACUCCCUUGGCAGCCAGUGAUGUUGGAAGCAGGUAAAUAAA [#SwitchBubble 17 #K4Late],359 nM
4,UGUCAUUGGUCUGAUACCAGUUGAUAAACUGGAGUGAUGUUCCAAGAACGAGAAACUCGCAACCCUUGGCAGCAGACCGAUGACU [TheoBS 17 #SwitchBubble 13 #StaticStem],66.9 nM
5,AUGCGUGAUGCUCAAAGAGUAUCACCCGAUACCAGUAUGGAAACAUACCCUUGGCAGCGGGUAACUGCCCAGUGAUGUUGGACGC [Theophylline A K4 10],160 nM
6,AAAUAUUCGAGUGAUGUUCGAAUAAUAUCAGAGGAUAUGCAUAAAAGCAGAAGGCUGUAUUACUUUUUGUUACGAAAUUUUAUAA [JR_SSFMNA_Sub020],115 nM
7,GGACAAGCAUUAGGAUAUAUAGAGCGAAACGCAAUUGAGUGAUGUUCAAAAGCAUAGGGCGAGGAAAUAGAAGGAAUGCACGGGC [Default title],180 nM
8,UGAACUGUCUGCGAUACCAGCUAAGGAGUGAUGUUCCGGCUCGACGAAACGUCGAGCCAUAGCCCUUGGCAGCGCAGACAGUUCA [#28 K4 Theophylline B Same State],160 nM
9,UCGGAGGGAGCGGCCGCCACUGUAUUACCUCGACGAACGCCGGUUUUCAUGAAGUGAUGUUUCGCCAGGACCGGGCUAAUCUGAG [theeternabot_exclusion_KL_Trp_B_46],202 nM
10,AGGUGCUACGGAAGGAGCGCACCAGUGAUGUUGGUGUGUGACCGUGACAUGGCAGUCAAGGUGCAGGUAGGUCGCCGUGGCCUUU [Geeseris],108 nM
11,AAUUCAGUGAUGUUGGAAGGCAGGAGGGAUACCAGCGGAAAUAAACGCCCUUGGCAGCCCAAAUAUCCCAAAUAGAUAAUAAUUU [Same State - Theophylline A (Freestyle 1)],381 nM
